From patent US20050066381A1

Key:
[1] = biological target: PP1c (PP1cα), protein phosphatase 1 catalytic subunit; experiment: PP1c pull-down from adenovirus-infected cardiomyocytes (I-1 + PKCα wt), I-1 Western blot, quantified
[2] = biological target: PP1c (PP1cα), protein phosphatase 1 catalytic subunit; experiment: PP1c pull-down from adenovirus-infected cardiomyocytes (I-1 + PKCα dn), I-1 Western blot, quantified
[3] = system: recombinant wildtype inhibitor-1 isolated from E. coli
[4] = system: recombinant Ser-67-Ala inhibitor-1 isolated from E. coli

Chain of PP1c (PP1cα), protein phosphatase 1 catalytic subunit (P62138 2-330): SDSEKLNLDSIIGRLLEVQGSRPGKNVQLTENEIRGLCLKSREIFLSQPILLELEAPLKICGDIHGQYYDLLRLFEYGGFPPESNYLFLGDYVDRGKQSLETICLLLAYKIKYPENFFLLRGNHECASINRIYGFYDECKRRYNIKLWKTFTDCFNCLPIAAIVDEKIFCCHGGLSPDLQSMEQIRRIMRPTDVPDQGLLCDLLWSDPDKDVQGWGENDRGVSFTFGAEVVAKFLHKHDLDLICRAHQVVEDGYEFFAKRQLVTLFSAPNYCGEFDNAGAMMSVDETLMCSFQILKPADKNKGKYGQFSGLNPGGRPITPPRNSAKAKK

| Substance | reduction of I-1 interaction with PP1c when wildtype PKCα is overexpressed [1] | increase of I-1/PP1c complex formation when dominant negative PKCα is expressed [2] | in vitro phosphorylation with 32P-ATP, SDS-PAGE and quantification of radioactivity [3] | in vitro phosphorylation with 32P-ATP, relative to wildtype I-1 [4] |
| --- | --- | --- | --- | --- |
| Inhibitor-1 (I-1), expressed from adenovirus in neonatal rat cardiomyocytes | 50 % reduction | > 70 % increase |  |  |
| protein kinase C isolated from rabbit heart muscle |  |  | Wildtype I-1 protein was directly phosphorylated in vitro in a time-dependent manner at stoichiometric levels by PKC | approximately 50% less phosphorylation by PKC compared with equal amounts of wildtype protein |
